{
  "source": "paper PMC4396695",
  "about": "“Structure of the Ribosomal Oxygenase OGFOD1 Provides Insights into the Regio- and Stereoselectivity of Prolyl Hydroxylases” (Structure(London, England:1993), 2015)",
  "target": "the molecule itself",
  "experiment": "native gel or EMSA; non-denaturing PAGE of OGFOD1 and of Tpa1p, each run alone; conditions not given",
  "data": [
    {"protein": "Tpa1p (termination and polyadenylation protein 1) (enzyme, S. cerevisiae, UniProt P40032 1-644, looked up, Tpa1p, Saccharomyces cerevisiae, full length, 644 aa, 74 kDa; plasmid pNIC28_Tpa1p; source: E. coli BL21(DE3), purified (HisTrap, Superdex 200, MonoQ)) MKRKTAEVKGEKERNSKQISLEEDKIKGMFNPKIWDKTFQDGLKKEIEDSQPYNWGTIHELVNDDLLRAVRKEIETEIHFTKKETDIYRVNQSGDLANLSGLDWDDLSRLPNLFKLRQILYSKQYRDFFGYVTKAGKLSGSKTDMSINTYTKGCHLLTHDDVIGSRRISFILYLPDPDRKWKSHYGGGLRLFPSILPNVPHSDPSAKLVPQFNQIAFFKVLPGFSFHDVEEVKVDKHRLSIQGWYHIPQVGEEGYIPGEEEAWVRNNTSTLAQIESNVLEDFEFPKDERNILSFHEVKHFEKMLKGDAGAKTDNTPKESMTSVISDSVKLSEAEFTYLSQYISPEHLSSKGIEKLQKQFVENSSLQIESFLNDDKSELLKKVIKQKELEQECPYHSKDVKAPWKTAIPPHKARYLYIDGKEYRNFQTEADILEALNNNDLPNFQFTKDAIKIISDASGNSRENNFDAELALIDLAVFHKSTIFKKYLALLTSLCPVSEQILIRRFRPGMDFTLATKCRFNELLKSNPDIIDAVLEGTLCLTPSAGWESGELGGYELYMMDDDEDNKQYLKEDVEDASVYRADDSGDSVLINDPPAWNTFNLVLRDESVLEFVKYVSWSAKSSRWDVKMKWDVKSCDEDGQEDEA", "values": [
      {"measurement": "stoichiometry N", "value": 2}
    ]}
  ]
}
